Results published in US20250382602.
Changes are numbered by the printed parent chain.

Legend:
[1] = biological target: T1, Dda 1993 K358S K358S (Enterobacteria phage T4) (UniProt P32270); conditions: nanopore translocation, FLO-MIN112; background mutations not given
T1 sequence: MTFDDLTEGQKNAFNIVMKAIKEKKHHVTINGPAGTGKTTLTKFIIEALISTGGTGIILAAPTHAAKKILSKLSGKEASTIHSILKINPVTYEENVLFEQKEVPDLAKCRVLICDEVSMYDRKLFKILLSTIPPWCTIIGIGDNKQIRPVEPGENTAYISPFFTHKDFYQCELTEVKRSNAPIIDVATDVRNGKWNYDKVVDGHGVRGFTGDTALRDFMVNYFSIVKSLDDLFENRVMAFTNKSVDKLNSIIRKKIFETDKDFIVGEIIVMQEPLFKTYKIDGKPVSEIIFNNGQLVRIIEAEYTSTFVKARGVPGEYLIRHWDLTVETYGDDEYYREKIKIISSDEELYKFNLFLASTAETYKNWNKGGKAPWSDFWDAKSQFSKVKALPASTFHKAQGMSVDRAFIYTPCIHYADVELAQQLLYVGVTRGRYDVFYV

[2] = biological target: T2, Dda 1993 C114S C114S (Enterobacteria phage T4) (UniProt P32270); conditions: nanopore translocation; background mutations not given
T2 sequence: T1 sequence with C114S, S358K

[3] = biological target: T3, Dda 1993 C114I C114I (Enterobacteria phage T4) (UniProt P32270); conditions: nanopore translocation; background mutations not given
T3 sequence: T1 sequence with C114I, S358K

[4] = biological target: T4, Dda 1993 C114V C114V (Enterobacteria phage T4) (UniProt P32270); conditions: nanopore translocation; background mutations not given
T4 sequence: T1 sequence with C114V, S358K

[5] = biological target: T5, Dda 1993 C114P C114P (Enterobacteria phage T4) (UniProt P32270); conditions: nanopore translocation; background mutations not given
T5 sequence: T1 sequence with C114P, S358K

[6] = biological target: T6, Dda 1993 C114M C114M (Enterobacteria phage T4) (UniProt P32270); conditions: nanopore translocation; background mutations not given
T6 sequence: T1 sequence with C114M, S358K

barcoded 3.6 kb DNA analyte ligated to sequencing Y adaptor
activity (bps speed delta vs control) [1]: 1.6
activity (bps speed delta vs control) [2]: -7.28
activity (bps speed delta vs control) [3]: 93.7
activity (bps speed delta vs control) [4]: 26
activity (bps speed delta vs control) [5]: 84.5
activity (bps speed delta vs control) [6]: 81.8
